Reference: patent US7067274B2, “Compositions and methods for the screening pro-apoptotic compounds” (Genentech, Inc., priority 2003, dated 2006)

Columns and labels:
MCF7 cells = assay: Inhibition of doxorubicin-induced apoptosis in transfected MCF7 cells; type: cell-based; settings: MCF7 cells transiently transfected, doxorubicin 0.5 μg/ml
Procedure: MCF7 cells were transiently transfected with the reporter plasmid pCMV-βgal and either vector control alone or BIR domain constructs. Following transfection, cells were exposed to doxorubicin (adriamycin; 0.5 μg/ml), stained with X-gal and apoptosis assessed by counting live and dead transfected cells. Percentage apoptosis represents the mean value of at least four sample points and is representative of three independent experiments.

[1] = biological target: Smac-9mer peptide (AVPIAQKSE); assay: Fluorescence polarization competition assay, Smac-9mer peptide; type: binding; settings: competition with 5 nM Hid-FAM probe, Ki from IC50
Procedure: (§1) Samples were read after a 10-minute incubation. Fluorescence polarization values were plotted as a function of the antagonist concentration, and the IC50 values were obtained by fitting the data to a 4-parameter equation using Kaleidagraph™ software (Synergy software; Reading, Pa.). Inhibition constants (Ki) for the antagonists were determined from the IC50 values (Keating et al., (2000) Putting the pieces together: contribution of fluorescence polarization assays to small-molecule lead optimization. Proceedings of SPIE: In-Vitro Diagnostic Instrumentation.).

[2] = biological target: Hid-FAM (5-carboxyflourescein-conjugated AVPFAK(5-FAM)K); assay: Fluorescence polarization affinity measurement with Hid-FAM probe; type: binding; settings: 5 nM Hid-FAM, apparent Kd from EC50
Procedure: Polarization experiments were performed on an Analyst™ HT 96-384 (Molecular Devices Corp.). […] The reactions were read after an incubation time of 10 minutes at room temperature with standard cut-off filters for the fluorescein fluorophore (λex=485 nm; λem=530 nm) in 96-well black HE96 plates (Molecular Devices Corp.). Fluorescence polarization values were plotted as a function of the protein concentration, and the EC50 values were obtained by fitting the data to a 4-parameter equation using Kaleidagraph™ software (Synergy software, Reading, Pa.). The apparent Kd values were determined from the EC50 values.
(§2) The binding affinity of the Hid-FAM probe for each of the BIR domains was determined directly using a fluorescence polarization-based assay and the result is shown graphically in FIG. 8.

ΔCARD human caspase 9 = biological target: T1, ΔCARD human caspase 9 (Homo sapiens, UniProt P55211, D305A/E304A/E306A); assay: Determination of caspase-9 inhibitory constants (Ac-LEHD-AFC hydrolysis); type: biochemical; settings: 300 nM ΔCARD caspase 9, 100 μM Ac-LEHD-AFC, 37° C.; read-out: Caspase-9 inhibition Ki(app)
T1 construct: made in house
T1 sequence (P55211 139-315 E304A/D305A/E306A limits assumed): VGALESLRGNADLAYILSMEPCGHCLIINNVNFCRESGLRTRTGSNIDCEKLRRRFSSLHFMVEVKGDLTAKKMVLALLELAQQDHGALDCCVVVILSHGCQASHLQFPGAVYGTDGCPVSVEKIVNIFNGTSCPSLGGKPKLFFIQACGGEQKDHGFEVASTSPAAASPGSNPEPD
T1 sequence (P55211 316-416 limits assumed): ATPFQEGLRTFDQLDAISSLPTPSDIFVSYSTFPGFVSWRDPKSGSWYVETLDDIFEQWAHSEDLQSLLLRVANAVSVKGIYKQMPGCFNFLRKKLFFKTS
Procedure: ΔCARD (caspase recruitment domain) human caspase 9 (lacking the first 138 residues) with Ala substitutions at residues 304 to 306 was produced as described previously (Boatright et al., (2003) Mol Cell 11: 529–541). The third BIR of […] (residues 252–348) was also prepared as described previously (Sun et al., (2000) J Biol Chem 275(43): 33777–81).
Determination of Caspase-9 Inhibitory Constants: Recombinant ΔCARD caspase 9 (300 nM final concentration in the assay) was preactivated in salt-free caspase buffer (20 mM PIPES, 10 mM EDTA, 0.1% CHAPS and 10% (w/v) sucrose, pH 7.2) for 15 min at 37° C. Following this, a range of inhibitor concentrations were preincubated with the enzyme for 20 min at 37° C. The assay was started by the addition of Ac-LEHD-AFC (100 μM final concentration) and measured kinetically for 30 min using an fmax Fluorescence Plate Reader (Molecular Devices) at an excitation wavelength of 405 nm and an emission wavelength of 510 nm. Reaction mixtures were thermostatically controlled at 37° C. The individual Ki values for the inhibitors [I] were determined from the uninhibited substrate hydrolysis rate (vo) and the inhibited rates (vi), so that a plot of (vo/vi)−1 against [I] gives Ki(app), the equilibrium inhibition constant in the presence of substrate (Salvesen and Nagase, (1989) Proteolytic enzymes: A practical approach. R. J. Beynon and J. S. Bond. Oxford, IRL Press: 83–104).

caspase-9 = biological target: T2, caspase-9 (Homo sapiens, UniProt P55211); assay: Caspase-9 co-immunoprecipitation in transfected 293T cells; type: cell-based; settings: Flag-tagged BIR domain proteins, IP anti-Flag
T2 construct: expressed in transfected cells; host or cells: 293T cells
T2 sequence (P55211 1-315 limits assumed): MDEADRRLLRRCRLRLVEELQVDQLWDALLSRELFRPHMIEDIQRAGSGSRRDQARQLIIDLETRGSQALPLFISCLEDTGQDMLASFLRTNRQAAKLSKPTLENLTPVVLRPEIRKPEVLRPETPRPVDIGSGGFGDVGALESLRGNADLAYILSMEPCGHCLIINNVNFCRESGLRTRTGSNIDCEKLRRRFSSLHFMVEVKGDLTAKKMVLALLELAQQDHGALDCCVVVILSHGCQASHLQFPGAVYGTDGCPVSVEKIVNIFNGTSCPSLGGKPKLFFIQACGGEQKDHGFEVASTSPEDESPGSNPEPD
T2 sequence (P55211 331-416 limits assumed): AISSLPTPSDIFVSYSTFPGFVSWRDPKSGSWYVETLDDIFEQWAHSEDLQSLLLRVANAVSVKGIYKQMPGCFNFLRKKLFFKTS
Procedure: 293T cells were transiently transfected with caspase-9 and Flag-tagged BIR domain proteins or vector. After 40 h, cells were lysed in NP40 lysis buffer (120 mM Tris, 150 mM NaCl, 1% NP-40, 1 mM DTT and protease inhibitor cocktail) and lysates immunoprecipitated (IP) with anti-Flag antibody. Samples were then Western blotted with anti-caspase-9 and anti-Flag antibodies. […] When overexpressed, caspase-9 undergoes autocatalytic processing and it is the processed form that physically interacts with XIAP and ML-IAP BIR domains.

[3] = biological target: wild-type mature Smac protein; assay: Fluorescence polarization competition assay, mature Smac protein; type: binding, human; settings: competition with 5 nM Hid-FAM probe, Ki from IC50
Procedure: A PCR product containing amino acids 56–239 of Smac/DIABLO (accession number SMAC_HUMAN) was cloned into the XbaI/XhoI sites of a pet21b+ (Novagen) generating a C-terminal His6 fusion. Pet21bSmac was transformed into Escherichia coli strain BL21(DE3) competent cells (Stratagene). Overnight cultures were diluted 1:100 and grown at 37° C. in LB media with 50 μg/ml carbenicillin to an A600 of 0.8 with vigorous shaking. Isopropyl-β-D-1-thiogalactopyranoside (IPTG) was added to a final concentration of 1 mM and cultures were grown overnight at 16° C. Cell pellets were resuspended in Buffer A (50 mM Tris (pH 8.0), 300 mM NaCl, 0.5 mM PMSF, 2 mM benzamidine, 5 mM β-mercaptoethanol) with 5 mM imidazole and placed on ice for 30 minutes. Cells were homogenized, microfluidized, and centrifuged at 15,000 rpm for 45 minutes. Supernatant was loaded onto a Ni-NTA agarose column (Qiagen™), washed with 10 column volumes Buffer A with 10 mM imidazole, and eluted with 10 column volumes Buffer A with 300 mM imidazole. Fractions containing Smac protein were pooled, concentrated and loaded on a Superdex™ 200 sizing column. Protein eluted over one column volume into 50 mM Tris (pH 7.6), 300 mM NaCl, 0.5 mM PMSF, 2 mM benzamidine and 5 mM DTT. Fractions containing Smac protein were pooled and dialyzed against 3 changes of buffer containing 50 mM Tris (pH 7.6), 0.5 mM PMSF, 2 mM benzamidine and 5 mM DTT. The dialyzed sample was loaded onto a Q-Sepharose™ FF column (Pharmacia) and eluted over a 10 column volume gradient from zero to 1 M NaCl in buffer 50 mM Tris (pH 7.6), 0.5 mM PMSF, 2 mM benzamidine and 5 mM DTT. The cDNA encoding full-length ML-IAP plus a N-terminal His6-tag was cloned into the pET15b(+) expression vector (Novagen). ML-IAP was expressed in E. coli strain BL21(DE3)pLysS. […] The protein concentration of purified proteins was determined from the absorbance at 280 nm based on the molar absorption coefficients calculated from the Edelhoch relationship (Edelhoch, (1967) Biochemistry 6: 1948–1954).
as §1, §2

B1: ML-IAP-BIR: wild-type ML-IAP BIR domain construct, amino acids 63–179 of accession number BIR7_HUMAN (protein)
chain: TEEEEEEGAGATLSRGPAFPGMGSEELRLASFYDWPLTAEVPPELLAAAGFFHTGHQDKVRCFFCYGGLQSWKRGDDPWTEHAKWFPSCQFLLRSKGRDFVHSVQETHSQLLGSWDP
modifications: left off: small tags and cut ends
inhibition of doxorubicin-induced apoptosis (MCF7 cells): confers resistance
Ki [1]: 200 nM
Kd [2]: 21 nM
Ki (ΔCARD human caspase 9): 3200 nM
caspase-9 binding efficiency (co-immunoprecipitation, Western blot) (caspase-9): co-imnunoprecipitates processed caspase-9
Ki [3]: 26 nM
